For assay [1], the target named is T1, extracellular domain of the human leptin receptor (human, UniProt P48357 22-839).
T1 construct: extracellular domain; a tag is not mentioned for the ELISA and cross-linking experiments; also called hECD; recombinant leptin receptor extracellular domain
T1 sequence (looked up): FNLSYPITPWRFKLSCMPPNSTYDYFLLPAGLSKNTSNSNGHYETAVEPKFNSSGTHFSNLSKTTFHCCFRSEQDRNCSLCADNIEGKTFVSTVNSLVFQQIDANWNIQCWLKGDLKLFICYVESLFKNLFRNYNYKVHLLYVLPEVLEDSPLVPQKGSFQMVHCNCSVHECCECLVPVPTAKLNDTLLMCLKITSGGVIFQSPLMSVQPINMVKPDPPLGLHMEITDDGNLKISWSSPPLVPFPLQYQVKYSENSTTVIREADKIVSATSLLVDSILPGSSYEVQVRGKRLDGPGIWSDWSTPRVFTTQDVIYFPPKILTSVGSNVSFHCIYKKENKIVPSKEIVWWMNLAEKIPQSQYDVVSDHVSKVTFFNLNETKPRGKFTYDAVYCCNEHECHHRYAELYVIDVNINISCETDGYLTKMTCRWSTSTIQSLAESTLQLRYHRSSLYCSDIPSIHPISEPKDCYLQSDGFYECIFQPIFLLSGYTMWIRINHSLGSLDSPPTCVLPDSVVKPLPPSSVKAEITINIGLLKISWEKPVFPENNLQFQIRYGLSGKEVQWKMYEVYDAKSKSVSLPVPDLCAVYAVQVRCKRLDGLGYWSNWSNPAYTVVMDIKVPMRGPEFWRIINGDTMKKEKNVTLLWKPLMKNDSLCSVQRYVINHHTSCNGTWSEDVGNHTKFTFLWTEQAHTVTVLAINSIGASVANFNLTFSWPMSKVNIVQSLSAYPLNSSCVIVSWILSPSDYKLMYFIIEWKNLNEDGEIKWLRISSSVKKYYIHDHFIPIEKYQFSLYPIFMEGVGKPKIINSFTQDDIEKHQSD
As to the kind of experiment: SPR, Biacore T200; His-tagged leptin receptor ECD amine-coupled on a CM5 chip, binder as analyte. The procedure:
The SPR binding assays were performed using the Biacore T200™ (GE Healthcare). […] All manipulations were performed as described in the user guide of the manufacturer. The analysis of the results were processed in BIA evaluation Software™.
For orientation: SPR reads the build-up and loss of mass on a sensor chip optically.

Assay [2] deals with T1, extracellular domain of the human …. As to the kind of experiment: SPR; leptin receptor ECD immobilized, antibody as analyte.
The target of assay [3] is T2, immunoglobulin-like domain (IgD) of the leptin receptor extracellular domain, I334-V427 (human, UniProt P48357 334-427).
T2 construct: Expressed and purified subdomain
T2 sequence: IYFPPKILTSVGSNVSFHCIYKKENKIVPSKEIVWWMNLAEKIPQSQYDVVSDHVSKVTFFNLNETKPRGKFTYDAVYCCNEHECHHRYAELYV
Kind of assay: ELISA of S2H6 on purified subdomains of the leptin receptor extracellular domain, OD405; antibody concentration not given. The source says: (§1) To test ability if the antibody to bind these domains, these subdomain were used in an ELISA-based biding assay.
(In an ELISA, binding on a coated surface is turned into a signal by an enzyme label.)

Assay [4] concerns the target T3, fibronectin type III domains (FNIII) of the leptin receptor extracellular domain, I636-D839 (human, UniProt P48357 636-839).
T3 construct: Expressed and purified subdomain
T3 sequence: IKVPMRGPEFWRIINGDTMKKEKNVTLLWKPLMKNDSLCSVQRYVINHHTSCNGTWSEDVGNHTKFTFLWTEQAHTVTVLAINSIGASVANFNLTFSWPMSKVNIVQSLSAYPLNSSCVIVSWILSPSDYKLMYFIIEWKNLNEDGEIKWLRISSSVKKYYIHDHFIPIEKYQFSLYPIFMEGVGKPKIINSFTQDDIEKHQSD
The assay is described as above.
Text: as §1

The target in assay [5] is T4, first cytokine receptor homology domain (CRH1) of the leptin receptor extracellular domain, Q122-V333 (human, UniProt P48357 122-333).
T4 construct: Expressed and purified subdomain
T4 sequence: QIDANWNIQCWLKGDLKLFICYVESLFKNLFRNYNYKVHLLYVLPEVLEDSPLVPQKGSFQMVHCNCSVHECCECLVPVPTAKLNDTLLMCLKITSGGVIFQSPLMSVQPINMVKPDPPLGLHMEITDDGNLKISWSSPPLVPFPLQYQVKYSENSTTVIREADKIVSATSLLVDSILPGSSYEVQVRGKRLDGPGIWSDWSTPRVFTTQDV
The description is as above.
Text: as §1

Assay [6] addresses T5, N terminal domain (NTD) of the leptin receptor extracellular domain, F22-Q121 (human, UniProt P48357 22-121).
T5 sequence: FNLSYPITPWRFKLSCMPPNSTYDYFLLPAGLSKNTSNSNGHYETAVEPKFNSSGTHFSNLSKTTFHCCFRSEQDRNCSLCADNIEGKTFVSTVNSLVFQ
The description is as above.
Text: as §1

In general, Kd refers to the free concentration of one partner at which half of the binding sites on the other are occupied at equilibrium, for simple one-to-one binding. A lower Kd goes with higher affinity. The koff is a measure of how fast the partners let go of each other. The kon is the second-order rate constant of association.

B1: S1scAb06 (antibody, V domains shown)
VH: QVQLVESGGGVVQPGRSLRLSCAASGFTFSSYGMHWVRQAPGKGLEWVAVISYDGSNKYYADSVKGRFTISRDNSKNTLYLQMNSLRAEDTAVYYCAKSLRNSFDYWGQGTLVTVSS
VL: EIVLTQSPGTLSLSPGERATLSCRASQSVSSNYLAWYQQKPGQAPRLLIYGASSRPTGIPDRFSGSGSGTDFTLTISRLEPEDFAVYYCQQYAASPLTFGGGTKLEIK
notes: also called S1scAb6; 51scAb06
In assay [1], B1 showed a Kd of 7.47 nM, a koff of 0.0516 s⁻¹ and a kon of 6.91e+06 M⁻¹ s⁻¹.

B2: S2H6 (antibody, V domains shown)
VH: QVQLLQSGGGVVQPGRSLRLSCAASGFTFSSYGMHWVRQAPGKGLEWVAVISYDGSNKYYADSVKGRFTISRDNSKNTLYLQMNSLRAEDTAVYYCASFQENYFTYWGQGTLVTVSS
VL: EIVLTQSPGTLSLSPGERATLSCRASQSVSSNYLAWYQQKPGQAPRLLIYGASSRPTGIPDRFSGSGSGTDFTLTISRLEPEDFAVYYCQQYAASPLTFGGGTKLEIK
notes: also called SC2H6
Regarding B2, the Kd in assay [1] and in assay [2] was 0.39 nM each time. The koff in assay [1] and in assay [2] was 0.000308 s⁻¹ each time. In addition, the kon in assay [1] and in assay [2] was 786000 M⁻¹ s⁻¹ each time. Besides, the binding result in assay [3], in assay [4], in assay [5] and in assay [6] was “no binding” each time.

B3: S2H5 (antibody, V domains shown)
VH: QVQLLQSGGGVVQPGRSLRLSCAASGFTFSSYGMHWVRQAPGKGLEWVAVISYDGSNKYYADSVKGRFTISRDNSKNTLYLQMNSLRAEDTAVYYCASRYENYFSLWGQGTLVTVSS
VL: EIVLTQSPGTLSLSPGERATLSCRASQSVSSNYLAWYQQKPGQAPRLLIYGASSRPTGIPDRFSGSGSGTDFTLTISRLEPEDFAVYYCQQYAASPLTFGGGTKLEIK
notes: also called SC2H5
As to B3, in assay [2], the affinity, expressed as Kd, was 0.626 nM; the koff amounted to 0.000164 s⁻¹; the kon was found to be 262000 M⁻¹ s⁻¹.

B4: S2H2 (antibody, V domains shown)
VH: QVQLLQSGGGVVQPGRSLRLSCAASGFTFSSYGMHWVRQAPGKGLEWVAVISYDGSNKYYADSVKGRFTISRDNSKNTLYLQMNSLRAEDTAVYYCATFRENYFEYWGQGTLVTVSS
VL: EIVLTQSPGTLSLSPGERATLSCRASQSVSSNYLAWYQQKPGQAPRLLIYGASSRPTGIPDRFSGSGSGTDFTLTISRLEPEDFAVYYCQQYAASPLTFGGGTKLEIK
notes: also called SC2H2; 52H2
Take B4: in assay [2], the Kd came to 0.355 nM, the koff amounted to 0.000119 s⁻¹ and the kon worked out at 336000 M⁻¹ s⁻¹.

B5: S2H7 (antibody, V domains shown)
VH: QVQLLQSGGGVVQPGRSLRLSCAASGFTFSSYGMHWVRQAPGKGLEWVAVISYDGSNKYYADSVKGRFTISRDNSKNTLYLQMNSLRAEDTAVYYCATRYENYFSTWGQGTLVTVSS
VL: EIVLTQSPGTLSLSPGERATLSCRASQSVSSNYLAWYQQKPGQAPRLLIYGASSRPTGIPDRFSGSGSGTDFTLTISRLEPEDFAVYYCQQYAASPLTFGGGTKLEIK
notes: also called SC2H7
For B5, in assay [2], the Kd amounted to 0.639 nM, the koff turned out to be 0.000171 s⁻¹ and the kon turned out to be 268000 M⁻¹ s⁻¹.

B6: S2H1 (antibody, V domains shown)
VH: QVQLLQSGGGVVQPGRSLRLSCAASGFTFSSYGMHWVRQAPGKGLEWVAVISYDGSNKYYADSVKGRFTISRDNSKNTLYLQMNSLRAEDTAVYYCASLYENYFSLWGQGTLVTVSS
VL: EIVLTQSPGTLSLSPGERATLSCRASQSVSSNYLAWYQQKPGQAPRLLIYGASSRPTGIPDRFSGSGSGTDFTLTISRLEPEDFAVYYCQQYAASPLTFGGGTKLEIK
notes: also called SC2H1
For B6, in assay [2], the Kd turned out to be 0.579 nM, the koff was found to be 0.000271 s⁻¹ and the kon came out at 468000 M⁻¹ s⁻¹.

B7: S2H3 (antibody, V domains shown)
VH: QVQLLQSGGGVVQPGRSLRLSCAASGFTFSSYGMHWVRQAPGKGLEWVAVISYDGSNKYYADSVKGRFTISRDNSKNTLYLQMNSLRAEDTAVYYCAGVRENYFTYWGQGTLVTVSS
VL: EIVLTQSPGTLSLSPGERATLSCRASQSVSSNYLAWYQQKPGQAPRLLIYGASSRPTGIPDRFSGSGSGTDFTLTISRLEPEDFAVYYCQQYAASPLTFGGGTKLEIK
notes: also called SC2H3
In assay [2], B7 yielded a Kd of 0.429 nM, an off-rate (koff) of 0.0002 s⁻¹ and a kon of 466000 M⁻¹ s⁻¹.

The values are drawn from US20220275097A1 (SHANGHAITECH UNIVERSITY, published 2022).
